# Measured values: publication PMC7905068, “Bornyl Diphosphate Synthase From Cinnamomum burmanni and Its Application for (+)-Borneol Biosynthesis in Yeast” (Frontiers in Bioengineering and Biotechnology, 2021)
# Substrate: CC(C)=CCC/C(C)=C/COP(=O)(O)OP(=O)(O)O
# Assay: GC-MS of products after CIAP dephosphorylation, Michaelis-Menten fit
# Format: biochemical, Cinnamomum burmanni
# Settings: 50 mM HEPES pH 7.2, 10 mM MgCl2, 5 mM DTT, 30 °C, 3 min, 0.125-150 μM GPP
protein,measurement,value
CbTPS1 (Cinnamomum burmanni) (protein) MALQMTVPFLSSFLPNPRHRPTAHGFIPQERVSKHISCSTTTPTYSTTVPRRSGNYKPSIWDYDFVQSLVSDYKVEAHGTRVEKLKEVVKNLLKETDSSLAQMELIDSLHRLGVRWLFENEIKQVLYTVSSDNTSIEMKKDLHAVSTRFRLLRQHGFKVSTDVFNDFEDEKGCFKPSLSMDIKGMLSLYEASHLAFQGETILDEARAFTHAHLMGIKENIDPIIHKKVEHALDMPLHWRLEKLEARWYMDMYMREEGMNSSLLELAMLHFNIVQATFQTNLKSLSRWWKDLGLGEQLSFSRDRLVECFFWAAAMTSEPQFGRCQEAVAKVVQLTTTIDDIYDVYGTVDELELFTNAVDRWDLEAMEQLPEYMKTCFLALYNSINEIGYGILKEQGRNVIPYLRNAWTELCKAYLVEAKWYSSGYTPMLEEFLQTSWISVGSLPMQTYAFALLGQNLAPESCDFAEQISDILPLAGMLIRFPDDLGTSLDELKRGDVPKSIQCYMHEAGVTEDVARDHIMGLFRETWKKLNEYLVESSIPHAFIDQAMNLGRVSYCTYKHGDGFSDGFGDPGSQEKKMYMSLFVEPIQVDEAKGISFCVDGGYA,Km,5.11 ± 1.70 µM
same,kcat,0.01 s^–1
